Laboratory results published in paper PMC2199964.

Biological target: Suc1 protein coupled to CNBr-Sepharose beads (UniProt P08463)
Experiment: pull-down

Suc1 protein coupled to CNBr-Sepharose beads, sequence (P08463 whole entry): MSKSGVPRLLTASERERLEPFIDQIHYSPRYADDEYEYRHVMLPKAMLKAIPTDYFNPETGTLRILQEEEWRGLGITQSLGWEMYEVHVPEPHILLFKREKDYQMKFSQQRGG

- percent of the protein removed from the extract by Suc1 beads: > 90%
Substance: Xenopus cyclin E, endogenous in interphase egg extract (natural protein)
